Test results as given in patent US20240158474A1 (SINO BIOLOGICAL, published 2024).

Assays:
HPV33 VLP protein = target: T1, HPV33 VLP protein (human papillomavirus type 33, UniProt P06416 1-499); assay: double-antibody sandwich ELISA on the mixture of 13 HPV VLPs
T1 construct: Complete VLP protein; no limits of the construct printed, whole entry named; also called HPV33L1
T1 sequence: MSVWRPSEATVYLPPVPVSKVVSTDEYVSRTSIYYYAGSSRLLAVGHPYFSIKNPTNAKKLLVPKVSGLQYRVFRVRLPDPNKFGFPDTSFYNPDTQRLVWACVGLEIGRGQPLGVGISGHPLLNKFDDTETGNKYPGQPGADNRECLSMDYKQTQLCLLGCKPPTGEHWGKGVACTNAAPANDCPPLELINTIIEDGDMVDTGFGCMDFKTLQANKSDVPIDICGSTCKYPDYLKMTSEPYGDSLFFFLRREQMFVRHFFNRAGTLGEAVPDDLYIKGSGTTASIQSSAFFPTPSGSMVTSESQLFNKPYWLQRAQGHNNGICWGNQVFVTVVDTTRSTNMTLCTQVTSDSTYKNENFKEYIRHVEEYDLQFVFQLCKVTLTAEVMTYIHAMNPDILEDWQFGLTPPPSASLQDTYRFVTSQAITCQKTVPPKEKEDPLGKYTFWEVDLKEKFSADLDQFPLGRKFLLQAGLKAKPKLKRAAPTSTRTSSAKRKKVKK

HPV56 VLP protein = target: T2, HPV56 VLP protein (human papillomavirus type 56, UniProt P36743 36-507); assay: indirect ELISA on coated VLP
T2 construct: Complete VLP protein; no limits of the construct printed, whole entry named; also called HPV56L1
T2 sequence: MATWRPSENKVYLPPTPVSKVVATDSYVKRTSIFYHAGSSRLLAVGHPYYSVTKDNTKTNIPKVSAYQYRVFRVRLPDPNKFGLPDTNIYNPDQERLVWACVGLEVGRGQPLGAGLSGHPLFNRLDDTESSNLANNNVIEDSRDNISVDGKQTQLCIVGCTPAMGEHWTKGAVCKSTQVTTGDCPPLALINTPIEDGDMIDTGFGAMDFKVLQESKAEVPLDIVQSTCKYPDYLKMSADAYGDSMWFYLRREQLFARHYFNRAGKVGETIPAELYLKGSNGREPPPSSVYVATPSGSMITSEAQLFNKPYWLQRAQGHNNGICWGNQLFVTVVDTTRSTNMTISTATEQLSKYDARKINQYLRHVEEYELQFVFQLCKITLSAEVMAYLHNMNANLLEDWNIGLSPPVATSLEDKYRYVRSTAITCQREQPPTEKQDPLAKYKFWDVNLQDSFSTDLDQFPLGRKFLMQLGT

HPV52 VLP protein = target: T3, HPV52 VLP protein (human papillomavirus type 52, UniProt Q05138 27-504); assay: indirect ELISA on coated VLP
T3 construct: Complete VLP protein; no limits of the construct printed, whole entry named; also called P52SHELL
T3 sequence: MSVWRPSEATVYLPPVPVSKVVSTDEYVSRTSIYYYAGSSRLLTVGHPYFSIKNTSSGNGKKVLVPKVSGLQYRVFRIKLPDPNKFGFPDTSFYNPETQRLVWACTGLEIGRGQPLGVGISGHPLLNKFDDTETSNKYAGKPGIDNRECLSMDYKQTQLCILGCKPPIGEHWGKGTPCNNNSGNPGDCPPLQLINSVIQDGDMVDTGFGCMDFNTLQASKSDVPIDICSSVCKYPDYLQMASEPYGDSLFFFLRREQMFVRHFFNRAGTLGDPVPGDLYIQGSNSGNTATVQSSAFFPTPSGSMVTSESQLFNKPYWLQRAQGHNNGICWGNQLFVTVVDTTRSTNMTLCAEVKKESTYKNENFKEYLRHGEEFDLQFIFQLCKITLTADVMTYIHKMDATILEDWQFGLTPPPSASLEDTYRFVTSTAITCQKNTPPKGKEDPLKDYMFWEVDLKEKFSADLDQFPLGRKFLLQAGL

HPV11 VLP protein = target: T4, HPV11 VLP protein (human papillomavirus type 11; human …, UniProt P04012 1-470; P06416 474-499); assay: indirect ELISA on coated VLP
T4 construct: range 1-470;range 474-499; Complete VLP protein used as coating protein
T4 sequence: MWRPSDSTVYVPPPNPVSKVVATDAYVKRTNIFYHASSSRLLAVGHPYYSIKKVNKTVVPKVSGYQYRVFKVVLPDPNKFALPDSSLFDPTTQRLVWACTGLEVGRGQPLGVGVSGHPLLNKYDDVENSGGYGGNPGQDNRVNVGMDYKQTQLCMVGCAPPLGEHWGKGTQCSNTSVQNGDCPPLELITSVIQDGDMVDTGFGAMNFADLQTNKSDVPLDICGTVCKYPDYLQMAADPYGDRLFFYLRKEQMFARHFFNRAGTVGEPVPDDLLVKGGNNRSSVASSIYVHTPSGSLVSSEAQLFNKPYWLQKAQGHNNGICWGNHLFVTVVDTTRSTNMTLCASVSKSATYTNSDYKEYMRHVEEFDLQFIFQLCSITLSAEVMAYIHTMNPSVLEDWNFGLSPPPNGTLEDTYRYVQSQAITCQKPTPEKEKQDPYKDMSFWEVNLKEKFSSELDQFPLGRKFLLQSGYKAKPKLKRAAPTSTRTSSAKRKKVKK

HPV58 VLP protein = target: T5, HPV58 VLP protein (human papillomavirus type 58, UniProt P26535 27-499); assay: indirect ELISA on coated VLP
T5 construct: Complete VLP protein; no limits of the construct printed, whole entry named; also called P58SHELL
T5 sequence: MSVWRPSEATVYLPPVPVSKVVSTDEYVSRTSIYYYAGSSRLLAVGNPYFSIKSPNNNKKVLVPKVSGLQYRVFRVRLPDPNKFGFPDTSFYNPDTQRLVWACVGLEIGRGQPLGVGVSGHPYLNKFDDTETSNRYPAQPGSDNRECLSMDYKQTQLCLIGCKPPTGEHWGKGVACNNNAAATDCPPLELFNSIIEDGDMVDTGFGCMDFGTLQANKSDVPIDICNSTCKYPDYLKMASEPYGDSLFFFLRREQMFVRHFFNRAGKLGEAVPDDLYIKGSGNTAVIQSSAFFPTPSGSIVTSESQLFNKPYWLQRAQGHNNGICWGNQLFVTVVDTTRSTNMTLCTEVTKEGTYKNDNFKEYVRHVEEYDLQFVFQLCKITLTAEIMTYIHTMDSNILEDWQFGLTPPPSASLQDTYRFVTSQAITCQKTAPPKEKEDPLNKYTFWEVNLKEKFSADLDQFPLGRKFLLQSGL

B1: monoclonal antibody HPV6-R003 (antibody, V domains shown)
VH: QQQLEESGGGLVKPGGTLTLTCKASGIDLSNYYMCWVRQAPGKGLEWIGCIYTGSGRTYYASWAKGRFTISKASSTTVTLQMTSLTAADTATYFCARDYLGWRASNIWGPGTLVTVSS
VL: ELVMTQTPSSVSAAVGGTVTINCQASQSVYSNNLVWYQQKPGQPPKLLIYGASTLASGVPSRFKGSGSGTQFTLTISDVVCDDAATYYCGGYVSDSTDGTAFGGGTEVVVKG
notes: here built from variable plus constant region so that the signal peptides are left out; In the sandwich ELISA the same antibody is used as coating antibody and, labelled with horseradish peroxidase, as detection antibody; also called anti-HPV6 L1 protein antibody
HPV33 VLP protein
  binding result: no binding (tested: mixture 50 ng/mL, each subtype 1/13)
HPV56 VLP protein
  binding result: no binding (tested: antibody 10 ng/mL; coating 2 µg/mL)
HPV52 VLP protein
  binding result: no binding (tested: antibody 10 ng/mL; coating 2 µg/mL)
HPV11 VLP protein
  binding result: no binding (tested: antibody 10 ng/mL; coating 2 µg/mL)
HPV58 VLP protein
  binding result: no binding (tested: antibody 10 ng/mL; coating 2 µg/mL)
